One assay deals with T1, ScpA_(S512A,D783A) (Streptococcus pyogenes, UniProt P15926 31-1032, S512A | D783A).
T1 construct: Made by QuikChange II from pGEX ScpA(31-1032); The active form D783A (S512 intact) was used for activity assays and for the crystal structure 7YZX; also called D783A_(S512A); source: details in Supplemental Information SI1 and SI2
T1 sequence (looked up): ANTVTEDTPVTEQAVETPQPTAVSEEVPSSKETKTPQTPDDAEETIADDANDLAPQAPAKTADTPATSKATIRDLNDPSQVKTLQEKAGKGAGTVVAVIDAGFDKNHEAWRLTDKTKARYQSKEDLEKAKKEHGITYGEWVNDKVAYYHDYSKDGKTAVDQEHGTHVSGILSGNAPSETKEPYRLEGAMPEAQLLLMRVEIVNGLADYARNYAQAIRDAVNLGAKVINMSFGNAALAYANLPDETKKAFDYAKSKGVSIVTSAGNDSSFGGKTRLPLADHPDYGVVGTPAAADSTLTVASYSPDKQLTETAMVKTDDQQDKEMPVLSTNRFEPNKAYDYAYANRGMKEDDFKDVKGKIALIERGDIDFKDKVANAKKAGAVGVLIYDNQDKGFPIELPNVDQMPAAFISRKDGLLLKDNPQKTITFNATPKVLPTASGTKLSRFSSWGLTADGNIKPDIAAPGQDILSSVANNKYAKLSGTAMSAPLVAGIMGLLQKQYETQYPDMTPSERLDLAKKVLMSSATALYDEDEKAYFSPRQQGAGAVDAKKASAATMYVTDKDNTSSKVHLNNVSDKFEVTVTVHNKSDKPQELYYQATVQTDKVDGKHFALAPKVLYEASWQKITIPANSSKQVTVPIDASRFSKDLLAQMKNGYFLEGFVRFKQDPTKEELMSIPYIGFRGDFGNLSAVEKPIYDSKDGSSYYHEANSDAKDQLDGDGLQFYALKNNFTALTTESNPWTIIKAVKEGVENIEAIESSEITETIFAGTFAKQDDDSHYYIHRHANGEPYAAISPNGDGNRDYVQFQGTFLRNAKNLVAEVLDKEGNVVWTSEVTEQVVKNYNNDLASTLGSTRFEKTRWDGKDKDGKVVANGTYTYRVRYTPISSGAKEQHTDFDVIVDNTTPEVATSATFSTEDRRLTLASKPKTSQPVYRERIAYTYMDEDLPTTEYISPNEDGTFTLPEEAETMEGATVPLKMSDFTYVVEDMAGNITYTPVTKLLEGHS
Kind of assay: SPR; BIAcore X100, NTA sensor chip with about 20-25 RU of immobilised His-tagged C5a form (ligand), ScpA form flowed as ligate at 30 uL/min, 25 °C, 10 mM Hepes-KOH pH 7.4, 150 mM NaCl, 0.005% Tween 20, 50 uM EDTA; global fit, 1:1 Langmuir model with drifting baseline; triplicate. The following applies: both partners purified. Background: In SPR one partner is held on a chip, and binding of the other changes the refractive index at the surface.

For a further assay, the target named is T2, ScpA_(S512A) (Streptococcus pyogenes, UniProt P15926 31-1032, S512A).
T2 construct: Plasmid pGEX ScpA(31-1032) was the template; also called C5a peptidase from Streptococcus pyogenes, active site serine to alanine mutant; source: details in Supplemental Information SI1 and SI2
T2 sequence (looked up): T1 sequence (looked up) with A753D
Described as above. The conditions noted are these: both partners purified.

Where a chain is given by its changes, count along the chain named.

The text below walks through data of paper PMC9464890, “Exosite binding modulates the specificity of the immunomodulatory enzyme ScpA, a C5a inactivating bacterial protease” (Computational and Structural Biotechnology Journal, 2022).

B1: Recombinant human C5a (rhC5a) (natural protein, UniProt P01031 678-751, looked up)
chain: TLQKKIEEIAAKYKHSVVKKCCYDGACVNNDETCEQRAARISLGPRCIKAFTECCVVASQLRANISHKDMQLGR
notes: human complement C5a anaphylatoxin, residues 1-74 (core 1-67 and tail 68-74); also called full length rhC5a; substrate; not shown: His6, N-terminal, kept
B1: in the assay with ScpA_(S512A,D783A), the equilibrium dissociation constant (Kd) (as a rule, the free concentration of one partner at which half of the binding sites on the other are occupied at equilibrium, for simple one-to-one binding) was found to be 314 nM; the koff (usually the rate constant with which the complex falls apart) was 0.0237 s⁻¹; the kon – broadly, the rate constant with which the complex forms – was found to be 75400 M⁻¹ s⁻¹. Further, in the assay with ScpA_(S512A), binding was characterised by a dissociation constant (Kd) of 34 nM, the koff was found to be 0.007 s⁻¹ and the kon came out at 209000 M⁻¹ s⁻¹.
